We go through two molecules from publication PMC10167226, “Short hydrophobic loop motifs in BRICHOS domains determine chaperone activity against amorphous protein aggregation but not against amyloid formation” (Communications Biology, 2023).

As usually defined, the stoichiometry N is a count of units in the complex or per binding partner.

Substitutions are numbered along the chain they refer to. Names and notes keep the numbering of the source.

Data set [1] addresses T1, porcine heart citrate synthase (pig, UniProt P00889 28-464).
T1 construct: citrate synthase from porcine heart; Partly unfolded by incubation at 45 °C when it meets the chaperone; also called CS; source: bought: Sigma-Aldrich (porcine heart)
T1 sequence (looked up): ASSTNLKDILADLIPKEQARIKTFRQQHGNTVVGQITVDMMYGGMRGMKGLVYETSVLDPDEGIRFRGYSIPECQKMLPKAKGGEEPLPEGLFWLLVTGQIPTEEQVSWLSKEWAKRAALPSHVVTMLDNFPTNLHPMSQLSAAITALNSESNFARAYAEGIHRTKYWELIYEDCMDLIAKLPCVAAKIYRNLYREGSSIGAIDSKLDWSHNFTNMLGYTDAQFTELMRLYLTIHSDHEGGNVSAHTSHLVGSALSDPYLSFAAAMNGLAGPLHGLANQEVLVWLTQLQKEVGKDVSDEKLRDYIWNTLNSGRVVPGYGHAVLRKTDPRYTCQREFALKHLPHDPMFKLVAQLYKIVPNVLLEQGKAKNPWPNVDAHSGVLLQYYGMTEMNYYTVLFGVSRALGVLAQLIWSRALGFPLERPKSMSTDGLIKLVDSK
The experiment in a line: SEC; 0.6 µmol/L CS incubated with 6 µmol/L rh Bri2 BRICHOS oligomers in 40 mmol/L HEPES/KOH pH 7.5 at 45 °C, then Superose 6 in 20 mmol/L NaPi pH 8.0, 0.2 mmol/L EDTA; fractions by SDS-PAGE (two bands) and native PAGE (one band); negative-stain EM of the complex. The note with it: both partners purified.

Data set [2] deals with the molecule itself. Put plainly: SEC; analytical SEC of isolated oligomers, Superdex 200 increase, 10 µmol/L protein in 20 mmol/L NaPi, 0.2 mmol/L EDTA, pH 8.0; number of subunits estimated from the peak maximum and its full width at half maximum.

B1: recombinant human Bri2 BRICHOS domain, wild type (domain or fragment, UniProt Q9Y287 113-231, looked up)
chain: QTIEENIKIFEEEEVEFISVPVPEFADSDPANIVHDFNKKLTAYLDLNLDKCYVIPLNTSIVMPPRNLLELLINIKAGTYLPQSYLIHEHMVITDRIENIDHLGFFIYRLCHDKETYKL
notes: human Bri2, BRICHOS domain, residues 113 to 231; Also exists as monomers and dimers; the oligomer fraction was used with CS; also called wt Bri2 BRICHOS; rh Bri2 BRICHOS; source: recombinant, modified pET32 vector with His6-NT* tag; copies: about 18-30 (oligomers, estimated by SEC)
For the molecule B1, the binding result in data set [1] is given as “binds”. The “stoichiometry N” value in data set [2] is 18 to 30 subunits.

B2: rh Bri2 BRICHOS T206W (domain or fragment, human, UniProt Q9Y287 113-231, looked up)
chain: B1 chain with T94W
notes: also called T206W mutant; source: recombinant, modified pET32 vector with His6-NT* tag
B2: the binding result in data set [2] is given as “binds”.
